Source: the Human Domainome abundance scans (Beltran et al. 2025)
± gives the uncertainty stated by the source.

B1: CD2-associated protein, residues 109 to 169; numbered along this chain, Q9Y5K6 (parent)
chain: KKRQCKVLFEYIPQNEDELELKVGDIIDINEEVEEGWWSGTLNNKLGLFPSNFVKELEVTD

Variants of: B1
Experiment: abundance fitness (aPCA) (normalised: wild type 0, dead -1); higher = more abundant; growth selection in yeast, the domain comes from the species named
Details: Homo sapiens

I26C and P13E are within error of each other in abundance fitness: -0.722 ± 0.29 for the first, -0.747 ± 0.39 for the second.

P13G and P13L are within error of each other in abundance fitness: -0.547 ± 0.13 for the first, -0.903 ± 0.34 for the second.

P13S and E35K are within error of each other in abundance fitness: -0.444 ± 0.21 for the first, -0.352 ± 0.17 for the second.

E35A and E35Y are within error of each other in abundance fitness: -0.226 ± 0.2 for the first, -0.395 ± 0.3 for the second.

Compared with E35L, E35C is higher in abundance fitness: -0.452 ± 0.13 for the first, 0.015 ± 0.15 for the second.

E31D and E31M are within error of each other in abundance fitness: 0.002 ± 0.23 for the first, -0.26 ± 0.17 for the second.

First: E31Y
Second: E31P
The abundance fitness of the first is higher: -0.122 ± 0.25 for the first, -0.855 ± 0.46 for the second.

First: E31A
Second: E31V
The abundance fitness of the first is higher: -0.052 ± 0.1 for the first, -0.354 ± 0.1 for the second.

Compared with E31K, E31S is lower in abundance fitness: 0.109 ± 0.12 for the first, -0.33 ± 0.13 for the second.

E31N and K2E are within error of each other in abundance fitness: -0.016 ± 0.22 for the first, 0.145 ± 0.3 for the second.

K2A and K2T are within error of each other in abundance fitness: -0.197 ± 0.16 for the first, -0.423 ± 0.3 for the second.

D17M and D17L are within error of each other in abundance fitness: 0.001 ± 0.26 for the first, -0.13 ± 0.13 for the second.

First: D17S
Second: D17K
The abundance fitness of the first is higher: 0.289 ± 0.14 for the first, -0.583 ± 0.45 for the second.

D17G and D17E are within error of each other in abundance fitness: -0.092 ± 0.12 for the first, 0.128 ± 0.11 for the second.

First: T60E
Second: T60Y
The abundance fitness of the first is higher: 0.019 ± 0.13 for the first, -0.489 ± 0.25 for the second.

T60C and T60D are within error of each other in abundance fitness: -0.183 ± 0.19 for the first, 0.183 ± 0.28 for the second.

C5I and C5K are within error of each other in abundance fitness: -0.656 ± 0.11 for the first, -0.632 ± 0.19 for the second.

Compared with C5S, C5V is higher in abundance fitness: -0.353 ± 0.056 for the first, 0.23 ± 0.056 for the second.

Going from C5Y to C5N, the abundance fitness falls from -0.097 ± 0.07 to -0.596 ± 0.083.

Compared with C5D, C5A is higher in abundance fitness: -0.626 ± 0.14 for the first, 0.335 ± 0.062 for the second.

K1Q and K1M are within error of each other in abundance fitness: -0.316 ± 0.19 for the first, -0.184 ± 0.22 for the second.

K1G and K1S are within error of each other in abundance fitness: -0.122 ± 0.13 for the first, -0.249 ± 0.13 for the second.

Going from K1N to I27L, the abundance fitness falls from 0.265 ± 0.29 to -0.436 ± 0.11.

I27P and I27C are within error of each other in abundance fitness: -0.61 ± 0.33 for the first, -0.692 ± 0.32 for the second.

I27T and I27W are within error of each other in abundance fitness: -0.902 ± 0.27 for the first, -0.913 ± 0.24 for the second.

I27N and I27K are within error of each other in abundance fitness: -0.542 ± 0.45 for the first, -1.03 ± 0.42 for the second.

Compared with I27Q, I27V is higher in abundance fitness: -0.541 ± 0.19 for the first, 0.03 ± 0.32 for the second.

F53H and F53S are within error of each other in abundance fitness: 0.054 ± 0.22 for the first, 0.037 ± 0.096 for the second.

F53T and F53K are within error of each other in abundance fitness: -0.255 ± 0.19 for the first, -0.031 ± 0.15 for the second.

F53Y and F53L are within error of each other in abundance fitness: 0.019 ± 0.22 for the first, -0.157 ± 0.093 for the second.

F53G and W37I are within error of each other in abundance fitness: -0.48 ± 0.17 for the first, -0.524 ± 0.24 for the second.

W37G and W37H are within error of each other in abundance fitness: -0.74 ± 0.43 for the first, -0.656 ± 0.31 for the second.

W37F and W37R are within error of each other in abundance fitness: -0.201 ± 0.18 for the first, -0.375 ± 0.14 for the second.

W37M and W37Y are within error of each other in abundance fitness: -0.267 ± 0.12 for the first, -0.448 ± 0.48 for the second.

E56D and E56I are within error of each other in abundance fitness: -0.505 ± 0.24 for the first, -0.225 ± 0.11 for the second.

Going from E56A to E56C, the abundance fitness rises from -0.366 ± 0.12 to 0.034 ± 0.14.

Compared with E56S, E56H is lower in abundance fitness: -0.32 ± 0.094 for the first, -0.666 ± 0.23 for the second.

E56P and Q14C are within error of each other in abundance fitness: -0.224 ± 0.1 for the first, -0.304 ± 0.24 for the second.

Q14V and Q14R are within error of each other in abundance fitness: -0.338 ± 0.27 for the first, -0.183 ± 0.15 for the second.

Compared with Q14T, S39P is lower in abundance fitness: 0.079 ± 0.16 for the first, -1.1 ± 0.33 for the second.

S39Q and S39E are within error of each other in abundance fitness: -0.217 ± 0.097 for the first, -0.097 ± 0.15 for the second.

With S39A the abundance fitness was -0.349 ± 0.11.
